# Experimental data taken from PMC4447588.
# Legend:
# [1] = test system: NC(=O)C1=CN([C@@H]2O[C@H](COP(=O)(O)OP(=O)(O)OC[C@H]3O[C@@H](n4cnc5c(N)ncnc54)[C@H](OP(=O)(O)O)[C@@H]3O)[C@@H](O)[C@H]2O)C=CC1; experiment: purified protein; settings: FMN, pH 7.0, 37 °C
# [2] = test system: Cc1cc2nc3c(=O)[nH]c(=O)nc-3n(C[C@H](O)[C@H](O)[C@H](O)COP(=O)(O)O)c2cc1C; experiment: purified protein; settings: NADPH, pH 7.0, 37 °C, varied: cofactor
substance,measurement,setting,value
PpArsH (Pseudomonas putida KT2440),Km,[1],74 µM
same,K0.5,[2],7.8 µM
